Results: doi:10.1101/2025.02.16.638571 (bioRxiv, 2025)

Columns and labels:
[1] = biological target: MojV G head domain (residues 176-625) (Mojiang virus, GenBank YP_009094095.1, UniProt W8TIR7); experiment: ELISA
[2] = biological target: LayV G head domain (residues 176-625) (Langya virus, GenBank UUV47206.1, UniProt A0AAX3C924); experiment: ELISA
[3] = biological target: NiVM G ectodomain (residues 96-602) (Nipah virus, Malaysia strain, …, UniProt Q9IH62); experiment: ELISA
[4] = biological target: T1, NiVM G head domain protein (residues 176-602) (Nipah virus, Malaysia strain (NiVM), UniProt Q9IH62); experiment: BLI
[5] = biological target: T1, NiVM G head domain protein (residues …); experiment: cryo-EM structure
[6] = biological target: deglycosylated NiVM G head domain without the His-tag (residues 176-602) (Nipah virus, Malaysia strain, …, UniProt Q9IH62); experiment: crystal structure
[7] = biological target: T2, NiVM G head domain protein (residues 176-602) (Nipah virus, Malaysia strain (NiVM), UniProt Q9IH62 176-602); experiment: BLI
T2 sequence: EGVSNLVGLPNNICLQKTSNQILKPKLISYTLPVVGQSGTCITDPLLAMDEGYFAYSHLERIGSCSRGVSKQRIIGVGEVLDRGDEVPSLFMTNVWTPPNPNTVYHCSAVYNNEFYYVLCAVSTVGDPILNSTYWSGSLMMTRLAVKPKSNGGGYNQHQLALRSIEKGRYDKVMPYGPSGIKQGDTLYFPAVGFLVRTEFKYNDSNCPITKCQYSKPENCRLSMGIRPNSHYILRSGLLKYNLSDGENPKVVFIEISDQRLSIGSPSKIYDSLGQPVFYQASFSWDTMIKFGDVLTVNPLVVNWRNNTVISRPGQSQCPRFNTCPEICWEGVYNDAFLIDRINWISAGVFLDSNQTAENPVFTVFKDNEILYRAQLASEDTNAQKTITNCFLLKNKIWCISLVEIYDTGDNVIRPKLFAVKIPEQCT

B1: mAb S2B10 (antibody, V domains shown)
VH: QMQLQESGPGLVKPSQSLSLTCTVTGYSITSDYAWNWIRQFPRNKLEWMGFITYSGSTSYNPSLKSRISLTRDTSKNQFFLQLSSVTTEDTATYYCARSGANWDWFAYWGQGTLVTVSA
VL: DIQMTQSPASLAVSLGQRATISCRASESVDNYGNSFMHWYQQKPGQPPKLLIYRASKLESGIPARFSGSGSRTDFTLTINPVEADDVATYHCQQSNEDPWTFGGGTKLEIK
- binding result [1]: no binding (tested: 1 μg/mL)
- binding result [2]: no binding (tested: 1 μg/mL)
- binding result [3]: binds
- binding result [4]: binds

B2: S2B10 Fab (Fab, V domains shown)
VH: QMQLQESGPGLVKPSQSLSLTCTVTGYSITSDYAWNWIRQFPRNKLEWMGFITYSGSTSYNPSLKSRISLTRDTSKNQFFLQLSSVTTEDTATYYCARSGANWDWFAYWGQGTLVTVSA
VL: DIQMTQSPASLAVSLGQRATISCRASESVDNYGNSFMHWYQQKPGQPPKLLIYRASKLESGIPARFSGSGSRTDFTLTINPVEADDVATYHCQQSNEDPWTFGGGTKLEIK
- binding result [5]: binds

B3: LN1F9 Fab (Fab, V domains shown)
VH: EVKLVESGGGLVKPGGSLKLSCAASGFSFRNYAMSWVRQSPEKRLEWVAEVSSGGGYTYYPDTVTGRFTISRDNAKNILYLEMSSLRSEDTAMYYCTRDPDSSGYLAWFAYWGQGTLVTVSA
VL: DILLTQSPASLSASVGETVTITCRASENINSYLAWYQQKQGKSPQLLVYNAKTLAEGVPSRFSGSGSDTQFSLKINTLQPEDFGTYYCQHHSGTPYTFGGGTKLEIK
- binding result [6]: binds

B4: mAb LN1F9 (antibody, V domains shown)
VH: EVKLVESGGGLVKPGGSLKLSCAASGFSFRNYAMSWVRQSPEKRLEWVAEVSSGGGYTYYPDTVTGRFTISRDNAKNILYLEMSSLRSEDTAMYYCTRDPDSSGYLAWFAYWGQGTLVTVSA
VL: DILLTQSPASLSASVGETVTITCRASENINSYLAWYQQKQGKSPQLLVYNAKTLAEGVPSRFSGSGSDTQFSLKINTLQPEDFGTYYCQHHSGTPYTFGGGTKLEIK
- binding result [1]: no binding (tested: 1 μg/mL)
- binding result [2]: no binding (tested: 1 μg/mL)
- binding result [3]: binds
- binding result [4]: binds

B5: human ephrin-B2 (residues 27-167) (receptor)
chain: SIVLEPIYWNSSNSKFLPGQGLVLYPQIGDKLDIICPKVDSKTVGQYEYYKVYMVDKDQADRCTIKKENTPLLNCAKPDQDIKFTIKFQEFSPNLWGLEFQKNKDYYIISTSNGSLEGLDNQEGGVCQTRAMKILMKVGQD
- binding result [7]: binds

B6: mAb S1E2 (antibody, V domains shown)
VH: QMQLQESGPGLVKPSQSLSLTCSVTGYSITSGYYWNWIRQFSGNKLEWMGYINHDGSKNYNPSLKNRISITRDTSKNQFFLKLNSVTTEDTATYYCARDYGSYYYPMDYWGQGTSVTVSS
VL: EIVLTQSPPIMSASPGEKVTITCSASSSVTFMHWFQQKPGTSPKLWIFSTSNLASGVPARFSGSGSGTSYSLTISRMEAEDAATYYCQQRSSYPFTFGSGTKLEIK
- binding result [1]: no binding (tested: 1 μg/mL)
- binding result [2]: no binding (tested: 1 μg/mL)
- binding result [3]: binds
- binding result [4]: binds

B7: S1E2 Fab (Fab, V domains shown)
VH: QMQLQESGPGLVKPSQSLSLTCSVTGYSITSGYYWNWIRQFSGNKLEWMGYINHDGSKNYNPSLKNRISITRDTSKNQFFLKLNSVTTEDTATYYCARDYGSYYYPMDYWGQGTSVTVSS
VL: EIVLTQSPPIMSASPGEKVTITCSASSSVTFMHWFQQKPGTSPKLWIFSTSNLASGVPARFSGSGSGTSYSLTISRMEAEDAATYYCQQRSSYPFTFGSGTKLEIK
- binding result [5]: binds

B8: LN3D3 Fab (Fab, V domains shown)
VH: EVKLEESGPELVKPGASVKMSCKASGYTFTNYVMHWVKQKPGQGLEWIGYVNPYNDGTQYNEKFRDKATLTSDKSSSTVYMELNSLTSEDSAVYYCTRGDYPYWVFEVWGAGTTVTVSS
VL: EIQMTQSPATLSVTPGDSVSLSCRASQSISNNLHWYQQKSHESPRLLIKYASQSISGIPSRFSGSGSGTDFTLSINNLETEDFGMYFCQHSDSWPFTFGSGTKLEIK
- binding result [5]: binds

B9: mAb LN3D3 (antibody, V domains shown)
VH: EVKLEESGPELVKPGASVKMSCKASGYTFTNYVMHWVKQKPGQGLEWIGYVNPYNDGTQYNEKFRDKATLTSDKSSSTVYMELNSLTSEDSAVYYCTRGDYPYWVFEVWGAGTTVTVSS
VL: EIQMTQSPATLSVTPGDSVSLSCRASQSISNNLHWYQQKSHESPRLLIKYASQSISGIPSRFSGSGSGTDFTLSINNLETEDFGMYFCQHSDSWPFTFGSGTKLEIK
- binding result [1]: no binding (tested: 1 μg/mL)
- binding result [2]: no binding (tested: 1 μg/mL)
- binding result [3]: binds
- binding result [4]: binds
